This passage reports IC50, Ki and EC50 results from US20220402980A1 (published 2022).

Assay [1] has as its target T1, cell-surface expressed αvβ6 on human cells (5637 bladder cancer cells, HaCaT keratinocytes, BxPC-3 pancreatic … (human, UniProt P06756 31-1048; P18564 22-788).
T1 chain 1: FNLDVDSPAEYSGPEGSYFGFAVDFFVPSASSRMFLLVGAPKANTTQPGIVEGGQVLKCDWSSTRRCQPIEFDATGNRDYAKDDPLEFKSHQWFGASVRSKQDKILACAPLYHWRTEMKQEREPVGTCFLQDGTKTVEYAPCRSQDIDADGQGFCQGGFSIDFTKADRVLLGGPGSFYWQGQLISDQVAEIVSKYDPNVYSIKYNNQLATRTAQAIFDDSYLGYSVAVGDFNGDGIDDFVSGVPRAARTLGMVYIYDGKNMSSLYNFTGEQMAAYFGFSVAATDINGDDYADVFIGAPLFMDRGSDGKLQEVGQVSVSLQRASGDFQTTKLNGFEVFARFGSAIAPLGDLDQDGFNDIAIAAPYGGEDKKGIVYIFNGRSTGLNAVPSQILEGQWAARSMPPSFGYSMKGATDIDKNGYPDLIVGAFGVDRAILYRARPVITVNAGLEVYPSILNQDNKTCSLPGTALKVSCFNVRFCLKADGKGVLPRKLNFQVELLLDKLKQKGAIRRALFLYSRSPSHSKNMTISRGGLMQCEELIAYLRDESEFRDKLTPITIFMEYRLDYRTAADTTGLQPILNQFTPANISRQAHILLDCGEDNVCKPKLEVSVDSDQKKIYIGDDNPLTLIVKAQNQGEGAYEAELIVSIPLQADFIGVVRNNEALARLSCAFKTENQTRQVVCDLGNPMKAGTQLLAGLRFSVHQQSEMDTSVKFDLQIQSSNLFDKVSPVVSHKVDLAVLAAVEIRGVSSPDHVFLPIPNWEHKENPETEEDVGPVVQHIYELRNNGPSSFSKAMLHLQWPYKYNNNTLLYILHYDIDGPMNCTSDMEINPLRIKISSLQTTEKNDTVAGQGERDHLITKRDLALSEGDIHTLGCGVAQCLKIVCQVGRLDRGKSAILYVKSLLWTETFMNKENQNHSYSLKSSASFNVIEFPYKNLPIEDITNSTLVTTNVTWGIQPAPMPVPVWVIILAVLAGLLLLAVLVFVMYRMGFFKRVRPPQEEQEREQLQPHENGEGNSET
T1 chain 2: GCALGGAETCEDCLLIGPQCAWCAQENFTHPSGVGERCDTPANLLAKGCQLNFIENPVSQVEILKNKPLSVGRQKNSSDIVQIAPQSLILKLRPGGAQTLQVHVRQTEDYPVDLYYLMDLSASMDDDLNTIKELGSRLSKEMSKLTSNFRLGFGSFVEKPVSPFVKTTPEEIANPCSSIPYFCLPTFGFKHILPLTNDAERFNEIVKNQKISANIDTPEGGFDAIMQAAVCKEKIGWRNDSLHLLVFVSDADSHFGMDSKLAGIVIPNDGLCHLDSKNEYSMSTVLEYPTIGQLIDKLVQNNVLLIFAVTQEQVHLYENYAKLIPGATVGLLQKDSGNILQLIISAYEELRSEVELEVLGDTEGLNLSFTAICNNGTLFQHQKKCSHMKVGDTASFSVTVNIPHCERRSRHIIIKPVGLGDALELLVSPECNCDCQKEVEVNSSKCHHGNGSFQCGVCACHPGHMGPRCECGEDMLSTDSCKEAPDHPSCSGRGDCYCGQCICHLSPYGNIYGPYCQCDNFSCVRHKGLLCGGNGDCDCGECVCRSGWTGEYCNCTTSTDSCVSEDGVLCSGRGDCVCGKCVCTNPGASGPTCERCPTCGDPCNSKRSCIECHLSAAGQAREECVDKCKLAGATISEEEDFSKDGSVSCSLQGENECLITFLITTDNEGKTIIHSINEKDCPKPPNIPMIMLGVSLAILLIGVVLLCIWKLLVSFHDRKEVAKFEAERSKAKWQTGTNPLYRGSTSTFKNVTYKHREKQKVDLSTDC
Briefly: FACS.

The target of assay [2] is T1, cell-surface expressed αvβ6 on human …. Briefly: FACS.
Assay [3] deals with T2, recombinant human αvβ6 extracellular domain (R&D Systems) (human, UniProt P06756 31-992; P18564 22-709).
T2 chain 1: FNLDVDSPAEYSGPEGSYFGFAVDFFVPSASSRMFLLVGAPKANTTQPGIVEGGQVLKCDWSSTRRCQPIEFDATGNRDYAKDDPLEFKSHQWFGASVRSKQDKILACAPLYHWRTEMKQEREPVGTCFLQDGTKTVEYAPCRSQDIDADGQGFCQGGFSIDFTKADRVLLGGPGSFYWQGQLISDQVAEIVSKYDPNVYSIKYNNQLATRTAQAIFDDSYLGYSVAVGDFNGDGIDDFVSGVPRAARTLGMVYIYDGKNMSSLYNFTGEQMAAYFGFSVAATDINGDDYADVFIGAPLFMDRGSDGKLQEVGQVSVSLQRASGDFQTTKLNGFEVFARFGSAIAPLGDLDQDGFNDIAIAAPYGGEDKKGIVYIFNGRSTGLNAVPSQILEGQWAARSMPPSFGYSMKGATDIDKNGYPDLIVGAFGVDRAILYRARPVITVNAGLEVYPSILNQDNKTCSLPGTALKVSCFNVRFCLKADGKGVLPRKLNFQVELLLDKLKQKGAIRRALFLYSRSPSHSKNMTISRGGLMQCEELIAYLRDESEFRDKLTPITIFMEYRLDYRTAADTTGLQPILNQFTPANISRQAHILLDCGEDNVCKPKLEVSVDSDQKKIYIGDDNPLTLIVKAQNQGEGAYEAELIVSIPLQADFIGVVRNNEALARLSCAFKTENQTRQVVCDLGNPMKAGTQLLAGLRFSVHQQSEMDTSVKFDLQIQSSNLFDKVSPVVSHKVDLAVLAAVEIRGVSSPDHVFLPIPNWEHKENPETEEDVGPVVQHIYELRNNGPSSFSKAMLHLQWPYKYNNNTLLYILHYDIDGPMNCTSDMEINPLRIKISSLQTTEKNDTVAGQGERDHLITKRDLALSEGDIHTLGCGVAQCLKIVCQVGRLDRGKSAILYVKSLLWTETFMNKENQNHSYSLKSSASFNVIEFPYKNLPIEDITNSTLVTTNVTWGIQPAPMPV
T2 chain 2: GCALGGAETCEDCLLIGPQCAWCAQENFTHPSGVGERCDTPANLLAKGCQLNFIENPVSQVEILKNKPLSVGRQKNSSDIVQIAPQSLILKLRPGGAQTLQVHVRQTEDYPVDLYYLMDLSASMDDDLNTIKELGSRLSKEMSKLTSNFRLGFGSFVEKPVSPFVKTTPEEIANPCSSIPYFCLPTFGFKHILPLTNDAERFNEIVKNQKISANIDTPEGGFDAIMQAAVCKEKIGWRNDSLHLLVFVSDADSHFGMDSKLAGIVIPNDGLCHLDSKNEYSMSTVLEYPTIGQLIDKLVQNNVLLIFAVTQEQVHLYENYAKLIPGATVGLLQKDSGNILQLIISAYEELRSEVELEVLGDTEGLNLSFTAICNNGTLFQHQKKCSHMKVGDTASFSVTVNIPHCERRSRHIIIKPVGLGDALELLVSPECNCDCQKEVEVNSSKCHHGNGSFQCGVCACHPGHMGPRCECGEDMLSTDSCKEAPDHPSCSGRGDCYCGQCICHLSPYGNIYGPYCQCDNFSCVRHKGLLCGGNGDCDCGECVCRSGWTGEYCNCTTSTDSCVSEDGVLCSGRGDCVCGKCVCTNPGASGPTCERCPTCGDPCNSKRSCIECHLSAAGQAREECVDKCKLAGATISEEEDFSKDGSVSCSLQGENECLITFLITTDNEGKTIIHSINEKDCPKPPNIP

The target of assay [4] is T2, recombinant human αvβ6 extracellular ….
Assay [5] has as its target T3, αvβ8 integrin (purified, coated on microtiter plates) (UniProt P06756 31-992; P26012 43-684).
T3 chain 1: T2 chain 1
T3 chain 2: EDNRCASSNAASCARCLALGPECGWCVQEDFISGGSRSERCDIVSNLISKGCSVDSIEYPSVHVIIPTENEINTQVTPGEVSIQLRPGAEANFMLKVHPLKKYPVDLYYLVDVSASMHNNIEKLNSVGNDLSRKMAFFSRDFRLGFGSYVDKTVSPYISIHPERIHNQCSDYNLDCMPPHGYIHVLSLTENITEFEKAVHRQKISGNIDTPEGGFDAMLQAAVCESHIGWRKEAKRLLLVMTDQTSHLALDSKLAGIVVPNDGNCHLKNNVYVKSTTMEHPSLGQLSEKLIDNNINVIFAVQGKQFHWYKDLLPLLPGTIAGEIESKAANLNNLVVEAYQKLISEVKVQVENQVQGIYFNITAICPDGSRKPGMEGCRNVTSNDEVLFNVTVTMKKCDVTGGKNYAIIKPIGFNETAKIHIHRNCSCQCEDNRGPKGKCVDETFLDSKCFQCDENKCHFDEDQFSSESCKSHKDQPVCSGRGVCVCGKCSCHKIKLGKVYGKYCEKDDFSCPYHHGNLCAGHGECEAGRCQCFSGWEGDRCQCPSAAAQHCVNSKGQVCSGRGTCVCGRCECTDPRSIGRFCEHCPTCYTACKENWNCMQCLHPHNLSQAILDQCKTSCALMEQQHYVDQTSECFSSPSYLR

The target in assay [6] is T2, recombinant human αvβ6 extracellular ….

Where two headings read alike, the source gives them in different places. Bridges are numbered along the chain shown (N, C = ends). Where no end group is shown, it is not given here. [ ]: non-standard residue; d: D form. maleimide‑NOTA = 1,4,7-triazacyclononane-1,4-bis-acetic acid-7-maleimidoethylacetamide; Lys(N3) = [N-]=[N+]=NCCCC[C@H](N)C(=O)O; Pra = C#CC[C@H](N)C(=O)O

B1: peptide 5 (triazole-stapled CgA39-63-derived peptide) (peptide)
peptide: Ac-FETLRGDLRILSILR[Pra]QNL[Lys(N3)]KELQD-NH2
modifications: triazole 16-20
Take B1: the IC50 turned out to be 25 nM in assay [1] and 3.6 nM in assay [2]. In addition, the Ki worked out at 0.84 nM in assay [3] and 0.93 nM in assay [4].

B2: peptide 2a (peptide)
peptide: CFETLRGEERILSILRHQNLLKELQD
As for B2, in assay [3], the Ki is > 100 nM.

B3: peptide 4 (peptide)
peptide: FETLRGDLRILSILRHQNLLKELQD
B3: the IC50 in assay [1] was 80 nM; in assay [2] it was 16.9 nM.

B4: 5a-IRDye (peptide 5a coupled via Cys to maleimide-IRDye 800CW) (peptide)
peptide: C(IRDye 800CW maleimide)FETLRGDLRILSILR[Pra]QNL[Lys(N3)]KELQD-NH2
modifications: triazole 17-21
Turning to B4, the EC50 was found to be 1.9 nM in assay [5] and 2.8 nM in assay [6].

B5: NOTA-2a (peptide 2a coupled to maleimide-NOTA) (peptide)
peptide: C(maleimide‑NOTA)FETLRGEERILSILRHQNLLKELQD
Turning to B5, the Ki in assay [4] is > 1000 nM.

B6: peptide 1 (CgA-derived peptide, residues 39-63), synthetic (peptide)
peptide: FETLRGDERILSILRHQNLLKELQD
In assay [2], B6 showed an IC50 of 640 nM.

B7: peptide 5a (peptide)
peptide: CFETLRGDLRILSILR[Pra]QNL[Lys(N3)]KELQD-NH2
modifications: triazole 17-21
Turning to B7, the Ki in assay [4] worked out at 1.71 nM.

B8: NOTA-5a (peptide 5a coupled to maleimide-NOTA) (peptide)
peptide: C(maleimide‑NOTA)FETLRGDLRILSILR[Pra]QNL[Lys(N3)]KELQD-NH2
modifications: triazole 17-21
Consider B8, for which the Ki in assay [4] was determined as 2.31 nM.
